Results from patent US20130236470A1 (JUNTENDO EDUCATINAL FOUNDATION, published 2013).

Tests used:
[1] = target: T1, peptide sequence WNSQKDILEQKRG of the HLA-DR β-chain (human); assay: peptide microarray of overlapping HLA-DR52 β chain peptides
T1 construct: on the microarray as overlapping 8- to 12-mers
T1 peptide: WNSQKDILEQKRG
Protocol: (§1) Overlapping peptides consisting of 8 to 12 amino acids shifted by one amino acid were chemically synthesized from their C termini on an array using the amino acid sequence of an HLA-DR52 β chain having the highest homology as a result of analysis using software Mascot (Shimadzu Techno-Research, Inc.) to prepare a peptide microarray (LC Sciences, LLC, Texas, US). First, the array was blocked by immersion overnight at 4° C. in a SuperBlock (pH 7.0) (Pierce Biotechnology Inc.) solution containing 0.05% Tween-20 to prevent nonspecific antibody binding. […] The array was washed with the washing solution for 20 minutes and then incubated at 25° C. for 1 hour in a 10 ng/mL Cy5-labeled goat anti-mouse IgG antibody solution. Cy5 was assayed at a wavelength of 635 nm using a microarray scanner (PMT 700 V). Since nonspecific binding to a peptide sequence having a C-terminal tryptophan residue was observed, this sequence was omitted and peptide sequences showing specific binding were then analyzed. […] A peptide sequence ([…]: SEQ ID NO: 2) of the HLA-DR β-chain to which an antibody described in WO2003/033538 bind is located 6 amino acid residues before the second N-terminal cysteine residue.

[2] = target: T2, HLA-DR expressed by L428 cells (human); assay: flow cytometry on L428 cells, serially diluted antibody; reference LN3
T2 construct: whole, on cells; The assay is on L428 cells; also called HLA-DR12; HLA-DR on L428 cells
Protocol: The ability of each antibody to bind to L428 cells was analyzed by incubation with each of serially diluted antibody solutions using a flow cytometer. […] For cell death induction, the uptake of propidium iodide (PI) was analyzed using a flow cytometer.

#34 = target: T3, #34 (human); assay: SPOTs peptide membrane (HLA-DR epitope peptide library)
T3 peptide: WNSQKDLLEQRRA

#38 = target: T4, #38 (human); assay: as above
T4 peptide: WNSQKDLLERRRA

#25 = target: T5, #25 (human); assay: as above
T5 peptide: WNSQKDFLERRRA

TRAIL death receptor DR5 = target: T6, TRAIL death receptor DR5 (UniProt O14763 56-440, limits assumed); assay: flow cytometry on BHK cells transfected with the DR5 receptor gene
T6 construct: whole, on cells; also called DR5 receptor
Protocol: (§2) Hamster-derived BHK cells transfected with the DR4 receptor or DR5 receptor gene were incubated with the antibody of the present invention for 1 hour and analyzed by flow cytometry in the same way as in Example 6.
(§3) In order to confirm whether the antibody of the present invention targets a TNF-related apoptosis inducing ligand (TRAIL) death receptor DR4 or DR5 known as a death receptor (cell death-inducing antigen), the antibody of the present invention was examined for its ability to stain hamster-derived BHK cells transfected with the DR4 receptor or DR5 receptor gene in the same way as above. As a result, the cells were stained by a known antibody against DR4 receptor or DR5 receptor (red line), but not stained by the antibody of the present invention (FIG. 9).

DR12-4 = target: T7, DR12-4 (human); assay: SPOTs peptide membrane, biotinylated 4713 antibody 1 µg/mL
T7 construct: HLA-DR12 overlapping peptide on SPOTs membrane
T7 peptide: FAGDTRPRFLEYSTG
Protocol: (§4) In order to reconfirm the results obtained using the peptide microarray, HLA-DR expressed by L428 cells was analyzed. […] Next, overlapping peptides were synthesized from the amino acid sequence of HLA-DR12 to prepare a custom SPOTs nitrocellulose membrane (Sigma-Aldrich Corp.). The membrane was rinsed with methanol for 5 minutes, then washed with a […] (TBS), and incubated at room temperature for 2 hours for blocking. […] The membrane was washed and then incubated for 2 hours in a solution of peroxidase (HRP)-labeled streptavidin (manufactured by Dako Japan Inc.) diluted 3000-fold with TBS. After washing, positive spots were detected using ECL Prime Western Blotting Detection kit (manufactured by GE Healthcare Japan Corp.) and a chemiluminescence detector (LAS-4000) (Table 3). As a result, the most strongly reacted peptide was DR12-26, followed by DR12-6 and DR12-13. […] Although an HLA-DR12-derived peptide to which the antibody described in WO2003/033538 binds was also arrayed as DR12-28, no binding was seen (Table 3).

DR12-14 = target: T8, DR12-14 (human); assay: as above
T8 construct: HLA-DR12 overlapping peptide on SPOTs membrane
T8 peptide: FTVQRRVHPKVTVYP
Protocol: as §4

DR12-17 = target: T9, DR12-17 (human); assay: as above
T9 construct: HLA-DR12 overlapping peptide on SPOTs membrane
T9 peptide: VCSVSGFYPGSIEVR
Protocol: as §4

DR12-3 = target: T10, DR12-3 (human); assay: as above
T10 construct: HLA-DR12 overlapping peptide on SPOTs membrane
T10 peptide: LMVLSSRLAFAGDTR
Protocol: as §4

DR12-25 = target: T11, DR12-25 (human); assay: as above
T11 construct: HLA-DR12 overlapping peptide on SPOTs membrane
T11 peptide: WRARSESAQSK
Protocol: as §4

DR12-6 = target: T12, DR12-6 (human); assay: as above
T12 peptide: FFNGTERVRLLERHF
Protocol: as §4

DR12-2 = target: T13, DR12-2 (human); assay: as above
T13 construct: HLA-DR12 overlapping peptide on SPOTs membrane
T13 peptide: SSLAALTVTLMVLSS
Protocol: as §4

DR12-13 = target: T14, DR12-13 (human); assay: as above
T14 construct: HLA-DR12 overlapping peptide on SPOTs membrane; also called DR-13
T14 peptide: RHNYGAVESFTVQRR
Protocol: as §4

DR12-7 = target: T15, DR12-7 (human); assay: as above
T15 construct: HLA-DR12 overlapping peptide on SPOTs membrane
T15 peptide: LLERHFHNQEELLRF
Protocol: as §4

DR12-15 = target: T16, DR12-15 (human); assay: as above
T16 construct: HLA-DR12 overlapping peptide on SPOTs membrane
T16 peptide: KVTVYPSKTQPLQHH
Protocol: as §4

DR12-26 = target: T17, DR12-26 (human); assay: as above
T17 construct: HLA-DR12 peptide on SPOTs membrane; also called DR-26
T17 peptide: RNQKGHSGLQPRGFLS
Protocol: as §4

peptide CRHNYGVGESFT = target: T18, peptide CRHNYGVGESFT (human); assay: peptide microarray of overlapping HLA-DR52 β chain peptides, 5 µg/mL 4713 mAb
T18 construct: Region of the HLA-DR52 β chain on the peptide microarray (overlapping 8- to 12-mers)
T18 peptide: CRHNYGVGESFT
Protocol: as §1

TRAIL death receptor DR4 = target: T19, TRAIL death receptor DR4 (UniProt O00220 24-468, limits assumed); assay: flow cytometry on BHK cells transfected with the DR4 receptor gene
T19 construct: whole, on cells; also called DR4 receptor
T19 sequence (looked up): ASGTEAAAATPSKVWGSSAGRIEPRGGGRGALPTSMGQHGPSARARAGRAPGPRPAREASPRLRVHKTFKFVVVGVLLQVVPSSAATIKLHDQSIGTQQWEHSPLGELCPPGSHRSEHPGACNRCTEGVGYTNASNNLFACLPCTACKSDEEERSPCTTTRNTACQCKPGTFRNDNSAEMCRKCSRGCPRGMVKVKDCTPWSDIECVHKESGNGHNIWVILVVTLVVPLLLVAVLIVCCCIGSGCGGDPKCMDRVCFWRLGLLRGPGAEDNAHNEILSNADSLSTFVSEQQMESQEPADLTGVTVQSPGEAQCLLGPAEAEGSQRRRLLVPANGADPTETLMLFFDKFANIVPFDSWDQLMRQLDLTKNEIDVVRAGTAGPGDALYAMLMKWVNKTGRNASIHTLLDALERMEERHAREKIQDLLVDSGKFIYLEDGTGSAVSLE
Protocol: as §2, §3

B1: 4713 mAb (antibody, mouse IgG1, V domains shown)
VH: DVQLQESGPGLVKPSQSLSLTCTVTGYSITNDYAWNWIRQFPGNKLEWMGYISYNDFTYYNPSLKSRISITRDTSKNQFFLQLNSVTAEDTATYYCVSERLRLVNHVMDYWGQGTSVIVSS
VL: QIVLTQSPPIMSASPGEKVTMTCSASSSVNYMHWHQQKSGTSPKKWIYDTSKLISGVPARFSGSGSGTSYSLTISSVEAEDAATYYCQQWSSYPFTFGSGTKLEIK
modifications: Used biotinylated on the SPOTs membranes; the site is not given.
notes: also called monoclonal antibody of the present invention
no binding (tested: 5 µg/mL): binding result [1]
binds: binding result (#34) | binding result (#38) | binding result (#25) | binding result (DR12-4) | binding result (DR12-14) | binding result (DR12-17) | binding result (DR12-3) | binding result (DR12-25) | binding result (DR12-6) | binding result (DR12-2) | binding result (DR12-13) | binding result (DR12-7) | binding result (DR12-15) | binding result (DR12-26) | binding result (peptide CRHNYGVGESFT)
~10 times: fold lower concentration for binding than LN3 [2]
no binding: binding result (TRAIL death receptor DR5) | binding result (TRAIL death receptor DR4)
